In publication PMC11305080:

What was measured:
[1] = target: human proprotein convertase subtilisin/kexin type 9 (PCSK9) (human) (UniProt Q8NBP7); experiment: BLI
[2] = target: HIT01-K21Q-R218E (cleavage-resistant variant of HIT01) (Pangasianodon hypophthalmus (iridescent shark) scaffold with human PCSK9 stretches); experiment: BLI

- Kd [1]: 1.71 nM
- Kd [2]: 2.78 nM
Substance: Alirocumab
